# Results reported in publication PMC5812274 (Science signaling, 2017).
# B1: BK channel auxiliary β1 subunit (natural protein, UniProt P97678 1-191, looked up)
# chain: MGKKLVMAQKRGETRALCLGVAMVVCAAITYYILGTTVLPLYQKSVWTQESTCHLVETNIKDQEELEGRKVPQYPCLWVNVSAVGRWAMLYHTEDTRDQNQQCSYIPRNLDNYQTALVDVKKVRANFYKHHNFYCFSAPQVNETSVVYQRLYGPQILLFSFFWPTFLLTGGLLIIAMVKLNRSLSVLAAQK
# Molecular target: large-conductance Ca2+-activated potassium (BK) channel pore-forming α subunit (rat (endogenous in cerebral artery …, UniProt Q62976 1-1209))
# Experiment: FRET or BRET
# Chain of large-conductance Ca2+-activated potassium (BK) channel pore-forming α subunit (rat (Q62976 whole entry): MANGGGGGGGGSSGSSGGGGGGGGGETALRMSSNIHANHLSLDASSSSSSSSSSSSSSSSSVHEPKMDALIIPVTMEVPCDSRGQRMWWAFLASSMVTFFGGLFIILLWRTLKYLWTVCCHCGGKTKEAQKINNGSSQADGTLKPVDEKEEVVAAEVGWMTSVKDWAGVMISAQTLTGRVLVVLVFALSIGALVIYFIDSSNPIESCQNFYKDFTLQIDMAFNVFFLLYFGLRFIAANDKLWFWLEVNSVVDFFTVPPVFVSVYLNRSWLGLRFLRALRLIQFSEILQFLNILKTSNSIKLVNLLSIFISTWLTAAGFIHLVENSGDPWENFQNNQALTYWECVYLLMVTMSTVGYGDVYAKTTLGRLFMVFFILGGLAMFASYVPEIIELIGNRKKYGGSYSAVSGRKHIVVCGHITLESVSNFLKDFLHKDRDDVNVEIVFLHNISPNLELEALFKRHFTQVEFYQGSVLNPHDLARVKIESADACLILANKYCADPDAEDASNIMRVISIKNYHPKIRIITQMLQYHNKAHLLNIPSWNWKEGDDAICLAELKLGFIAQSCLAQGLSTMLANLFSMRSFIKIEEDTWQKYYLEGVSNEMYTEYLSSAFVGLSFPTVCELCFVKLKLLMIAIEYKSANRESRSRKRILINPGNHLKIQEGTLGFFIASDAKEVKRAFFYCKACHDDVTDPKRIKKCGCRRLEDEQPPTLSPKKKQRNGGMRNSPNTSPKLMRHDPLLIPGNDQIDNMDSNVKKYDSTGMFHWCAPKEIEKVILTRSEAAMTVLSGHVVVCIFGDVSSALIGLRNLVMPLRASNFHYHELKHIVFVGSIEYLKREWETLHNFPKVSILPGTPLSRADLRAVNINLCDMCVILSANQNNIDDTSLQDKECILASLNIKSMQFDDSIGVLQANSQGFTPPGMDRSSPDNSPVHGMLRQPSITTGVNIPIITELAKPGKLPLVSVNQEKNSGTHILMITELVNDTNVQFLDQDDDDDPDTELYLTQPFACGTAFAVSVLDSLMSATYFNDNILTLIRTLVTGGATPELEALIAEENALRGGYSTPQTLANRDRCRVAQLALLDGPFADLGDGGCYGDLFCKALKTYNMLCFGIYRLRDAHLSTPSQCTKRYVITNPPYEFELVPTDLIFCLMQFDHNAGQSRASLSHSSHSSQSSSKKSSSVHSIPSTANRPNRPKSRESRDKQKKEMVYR
binder,measurement,value
B1,"fold increase of normalized FRET, 60 mM K+ against 6 mM K+",~3.4 fold
